This assay addresses PI3K p85 SH2 domains. In words: SPR (BIAcore 3000), PI3K p85 SH2 domains. Format: binding. Particulars: HBS pH 7.4, 37°C, n = 3. As for the experimental part: Experiments were conducted on a BIAcore™ 3000 in HBS buffer (0.01 M HEPES, pH 7.4, containing 0.15 M NaCl, 3 mM EDTA, and 0.005% v/v P-20, GE Life Sciences, Amersham, UK). Streptavidin was coupled to a research grade CM5 chip (GE Life Sciences, Amersham, UK) as previously described, [13]. Protein-peptide interactions were carried out a rate of 10 µl/min at a constant temperature of 37°C to more accurately reflect physiological conditions. Biotinylated peptides were bound to the streptavidin-coated CM5 chips at 37°C to between 25–50 RU [14]. Purified monomeric SH2 domains were passed over the immobilised peptides at a range of concentrations. Anti-phosphotyrosine monoclonal antibody (Sigma, Poole, U.K.) was passed over the chip to saturation at the end of each experiment to verify peptide coverage on the chip. Binding affinities for the single ITIM/ITSM peptides were determined by plotting equilibrium binding measurements (RU) against SH2 domain protein concentration (Origin 8, OriginLab, MA, USA). KD was defined as the concentration of SH2 protein that gave half maximal binding to the peptide. For the 60-mer peptides, SH2 domains were passed over the chip surface at 50 µl/min. KD was determined as Koff/Kon, which were determined using both GraphPad Prism 5.0 (GraphPad, La Jolla, CA, USA) and BIAevaluation Software (GE Life Sciences, Amersham,UK). […]

B1: G6B-b: inhibitory platelet receptor; affinities measured with its dual phosphopeptide (protein, UniProt O95866 18-241, looked up)
Megakaryocyte and platelet …: NPGASLDGRPGDRVNLSCGGVSHPIRWVWAPSFPACKGLSKGRRPILWASSSGTPTVPPLQPFVGRLRSLDSGIRRLELLLSAGDSGTFFCKGRHEDESRTVLHVLGDRTYCKAPGPTHGSVYPQLLIPLLGAGLVLGLGALGLVWWLHRRLPPQPIRPLPRFAPLVKTEPQRPVKEEEPKIPGDLDQEPSLLYADLDHLALSRPRRLSTADPADASTIYAVVV
B1 yielded an equilibrium dissociation constant (Kd) of around 1000 nM.

The record behind these values is article PMC3501490 (PLoS ONE, 2012).
